Measured values: patent US8927280B2, “Compositions and methods for promoting the generation of definitive endoderm” (President and Fellows of Harvard College, priority 2009, dated 2015)

Columns and labels:
[1] = tested on: endoderm derived from Pdx1-GFP mouse ES cells; assay: Differentiation of induced endoderm into Pdx1+ pancreatic progenitors; assay type: cell-based
Procedure: (§1) Mouse ES cells were routinely cultured on irradiated CF-1 MEF feeder cells in DMEM (Gibco) media supplemented with 15% Fetal Bovine Serum (HyClone FBS, Invitrogen), 2 mM L-glutamine (L-Glu, Gibco), 1.1 mM 2-mercaptoethanol (Gibco), 1 mM nonessential amino acids (Gibco), 1× penicillin/streptomycin (P/S, Gibco) and 5×10^5 units LIF (Chemicon). Cells were passaged at the ratio of 1:6-1:12 every 2-3 days using 0.25% trypsin. To generate the starting population, mouse ES cells was cultured on MEF feeder cells until they reached 80-90% confluence. Prior to differentiation, ES cells were passaged onto gelatin coated plates for 30 min to remove MEFs. MEF depleted ES cells were seeded at 2500 cells per cm^2 on gelatinized plates. After overnight culture, cells were exposed to 25 ng/ml Wnt3a (R&D Systems)+50 ng/ml recombinant Activin A (R&D Systems) or 500 ng/ml Nodal (R&D Systems) in DMEM (Gibco) supplemented with 1×L-Glu and 0.2% FBS (Gibco) for 1 day, then Activin A or Nodal in the same media and cultured for 4-6 days to induce endoderm differentiation. For the chemical inductions, compounds IDE1 and IDE2 (provided by Stuart L. Schreiber) were added at 5 μM concentration in the differentiation media. For pancreatic progenitors induction, the cells were transferred to 50 ng/ml FGF10 (R&D Systems), 0.75 μM KAAD-cyclopamine (Calbiochem) and 2 μM RA (Sigma) or Indolactam V 330 nM (Axxora) in DMEM supplemented with 1×L-Glu, 1×PS, 1×B27 (Invitrogen) for 4 days. SHB431542 was purchased from Sigma. All stock compounds were made with either DMSO or PBS
(§2) Cells were fixed in 4% paraformaldehyde (Sigma) in PBS for 20 min at 4° C. followed by a wash with PBS. Cells were blocked with 10% donkey serum (Jackson Immunoresearch) in PBS/0.1% Triton X and incubated with primary antibodies overnight at 4° C. Secondary antibodies were incubated for 1 h at room temperature. The following antibodies and dilutions were used: goat anti-SOX17, (1:500 R&D systems); rabbit anti-PDX1 (1:200, Chemicon), rabbit anti-FoxA2 (1:500; Upstate), rabbit anti-Dab2 (1:200, Santa Cruz), rabbit anti-SPARC (1:200, Santa Cruz,), mouse anti-AFP (1:100, Sigma), anti-Gata6 (1:50, Santa Cruz Biotech), goat anti-HNF6 (1:200, Santa Cruz Biotech), rabbit anti-RFP/DsRed (1:300, MBL), rabbit anti-GFP (1:200, Molecular Probes). Secondary antibodies were: rhodamine Red-X-conjugated donkey anti-goat antibody, 1:200 (JIRL), Alexa-488-conjugated goat anti-mouse and Alexa-594-conjugated goat anti-rabbit antibodies (1:300, Molecular Probes). Nuclei were visualized by Hoechst 33342 (1:1000, Molecular Probes). Images were taken using an Olympus IX70 Microscope. For quantification images were analyzed for the frequency of SOX17+, FoxA2+ or Pdx1+ cells using Metamorph image analysis software (Molecular Devices) and at least 6 images per well were collected. Data were confirmed in four independent experiments.
Pancreatic progenitors appear in the pancreatic bud at E9.5 and are marked by the expression of the transcription factor Pdx1. […] Using Pdx1-GFP knock-in (Micallef et al., 2005) mouse ES cells the inventors induced definitive endoderm using either of the hit compounds and cultured cells in various conditions for additional six days.

Smad2 = assay: Western blot analysis of Smad2 phosphorylation in ES cell lysates; assay type: cell-based, mouse; conditions: for phosphorylation of Smad2 by IDE1 or IDE2 in the presence of the ALK4/5/7 inhibitor: mouse ES cells, co-treatment; for phosphorylation of Smad2 / activation of the TGF-β pathway: ES cell lysates, after 24 hrs or longer
Procedure: Cells were lysed in 1×RIPA lysis buffer in the presence of protease inhibitor mixture (Roche)/1% phosphatase inhibitor mixture (Roche). Proteins were separated by 10% Tris-Glycine SDS/PAGE (Bio-rad) under denaturing conditions and transferred to a nitrocellulose membrane. After blocking with 5% skim milk in PBS/0.1% Triton X, the membrane was incubated with primary antibodies against phospho-Smad2 (1:1000, Cell Signaling) overnight at 4° C. The membrane was then washed, incubated with anti-mouse/rabbit peroxidase-conjugated affinity-purified secondary antibody (1:1000, Cell Signaling) at room temperature for 1 h, and developed by SuperSignal chemiluminescence (Pierce).

mouse ES cells = assay: Sox17 endoderm induction in mouse ES cell monolayer cultures; assay type: cell-based; conditions: for percent of total cells Sox17/dsRed double positive: Sox17-dsRed mouse ES cells, day 6, low serum
Procedure: as §1, §2
Endoderm formation was monitored by Sox17 expression by either flow cytometry detection of Sox17/DsRed or immunofluorescence using anti-Sox17 antibodies. Cells labeled by antibody staining were quantified using Metamorph software ad percentage of total cell number (based on Hoechst 33342 nuclei staining). All conditions were tested in either tri- or quadruplicates.

[2] = tested on: human ES cells (HUES 4 and 8); assay: Sox17 endoderm induction in human ES cells; assay type: cell-based
Procedure: Human embryonic stem cell lines were cultured essentially as described {Cowan, 2004 #6}. Briefly, HUES4, HUES8 and HUES9 cells are routinely cultured on irradiated CF-1 MEF feeder cells in KnockOut DMEM (Gibco) supplemented with 10% KnockOut Serum Replacement (Gibco), 10% human plasma (Invitrogen), 2 mM L-glutamine (L-Glu, Gibco), 1.1 mM 2-mercaptoethanol (Gibco), 1 mM nonessential amino acids (Gibco), 1× penicillin/streptomycin (PS, Gibco) and 10 ng/ml bFGF (Invitrogen). Cells are split at the ratio of 1:10-1:12 every 4-5 days by using 1 mg/ml collagenase type IV. To induce endoderm formation, HUES cells was cultured on MEF feeder cells till 80-90% confluent, then treated with 100 ng/ml Activin A in advanced RPMI (Gibco) supplemented with 1×L-Glu and 0.2% FBS (Gibco), or with combination of 25 ng/ml Wnt3a (R&D systems)+100 ng/ml Activin A (R&D systems) or were exposed to compounds in the same media. At days 4 and 6 of culture cells were analysed for endodermal marker expression, Sox17.
as §2

Molecule: CC(C)[C@H]1C(=O)N[C@H](CO)Cc2c[nH]c3cccc(c23)N1C [Indolactam V, (2S,5S)-1,2,4,5,6,8-Hexahydro-5-(hydroxymethyl)-1-methyl-2-(1-methylethyl)-3H-pyrrolo[4,3,2-gh]-1,4-benzodiazonin-3-one]
- increase of Pdx1+ cells above control treatment at day 12 ([1]; IDE1 or IDE2 followed by ILV): 10 fold
- percent Pdx1-GFP expressing pancreatic progenitors at day 6 ([1]; IDE1 or IDE2 induced mouse endoderm, second step treatment): 51±7.4%
- yield of pancreatic progenitors compared to a growth factor based approach ([1]; applied to IDE1 or IDE2 derived endoderm): higher yields of pancreatic progenitors
- percent of total cells Pdx1+ at day 12 ([1]; cultures treated initially with IDE1 or IDE2 and followed by ILV): 50%
- increase in Pdx1+ cell number compared to known published protocols ([1]; two-step treatment): 4 fold
- percent of Pdx1+ cells also expressing other pancreatic progenitor markers, including HNF6 ([1]; two-step treatment): 92±5%
- increase in Pdx1+ cell number compared to the control DMSO treated ([1]; two-step treatment, Pdx1 antibody staining): 10 fold
- percent of cells positive with Pdx1 antibodies ([1]; two-step treatment: IDE1 and/or IDE2, then Indolactam V): 53±6.4%

Molecule: NC(=O)c1ccc(-c2nc(-c3ccc4c(c3)OCO4)c(-c3ccccn3)[nH]2)cc1 [SB43125, reference compound]
- phosphorylation of Smad2 by IDE1 or IDE2 in the presence of the ALK4/5/7 inhibitor (Smad2): strongly attenuated
- phosphorylation of Smad2 by IDE1 or IDE2 in the presence of the ALK4/5/7 inhibitor (Smad2; listed as SB431542): significantly attenuated
- induction of Sox17 protein under co-treatment of IDE1 or IDE2 with the ALK4/5/7 inhibitor (mouse ES cells; mouse ES cells): 5.6±1.3%

B1: Wnt3a: Wnt growth factor family member (protein, UniProt P56704 19-352, looked up)
Protein Wnt-3a: SYPIWWSLAVGPQYSSLGSQPILCASIPGLVPKQLRFCRNYVEIMPSVAEGIKIGIQECQHQFRGRRWNCTTVHDSLAIFGPVLDKATRESAFVHAIASAGVAFAVTRSCAEGTAAICGCSSRHQGSPGKGWKWGGCSEDIEFGGMVSREFADARENRPDARSAMNRHNNEAGRQAIASHMHLKCKCHGLSGSCEVKTCWWSQPDFRAIGDFLKDKYDSASEMVVEKHRESRGWVETLRPRYTYFKVPTERDLVYYEASPNFCEPNPETGSFGTRDRTCNVSSHGIDGCDLLCCGRGHNARAERRREKCRCVFHWCCYVSCQECTRVYDVHTCK
- synergy / combined effect on Sox17 induction (mouse ES cells; mouse ES cells, co-treatment): no significant effect

B2: Activin A: recombinant TGF-β family growth factor, protein inducer of endoderm (protein, UniProt P08476 311-426, looked up)
Inhibin beta A chain: GLECDGKVNICCKKQFFVSFKDIGWNDWIIAPSGYHANYCEGECPSHIAGTSGSSLSFHSTVINHYRMRGHSPFANLKSCCVPTKLRPMSMLYYDDGQNIIKKDIQNMIVEECGCS
- percent of cells expressing Sox17 ([2]; HUES cells, 4 days, IDE1 100 nM, IDE2 200 nM): 64±6.3%
- increase of Sox17 expression compared to the vehicle treatment ([2]; human ESC cultures, 6 days): 4 fold
- percent of total cells expressing Sox17 after 6 days ([2]; human ESC cultures, 6 days): 55-65%
- phosphorylation of Smad2 / activation of the TGF-β pathway (Smad2): high level
- percent of total cells Sox17/dsRed double positive (mouse ES cells): 45%
- percent of ES cells that form (definitive) endoderm, summary statement (mouse ES cells; mouse ES cells): about 45%
- % of Sox17+ cells compared to IDE1 or IDE2 at all tested time points (mouse ES cells; mouse ES cells, 14 days of treatment): significant but lower % of Sox17+ cells
- percentage of cells expressing Sox17 at day 2 of treatment (mouse ES cells; mouse ES cells, day 2): 13%
- percentage of cells expressing Sox17 at day 4 of treatment (mouse ES cells; mouse ES cells, day 4): 28%
- percent of cells expressing Pdx1 after FGF10, KAAD-cyclopamine and retinoic acid ([1]; label = inducer of the starting endoderm, mouse ES cells): 12.1±4%

B3: Nodal: TGF-β family growth factor, protein inducer of endoderm (protein, UniProt Q96S42 238-347, looked up)
Nodal homolog: HHLPDRSQLCRKVKFQVDFNLIGWGSWIIYPKQYNAYRCEGECPNPVGEEFHPTNHAYIQSLLKRYQPHRVPSTCCAPVKTKPLSMLYVDNGRVLLDHHKDMIVEECGCL
- phosphorylation of Smad2 / activation of the TGF-β pathway (Smad2): high level
- percent of total cells Sox17/dsRed double positive (mouse ES cells): 45%
- percent of ES cells that form (definitive) endoderm, summary statement (mouse ES cells; mouse ES cells): about 45%
